Assay [1] has as its target T1, human CD40 expressed on cells (human, UniProt P25942 21-277).
T1 construct: also called huCD40; Raji cells
As to the kind of experiment: flow cytometry, Raji cells.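 Note: cell binding of antibodies to Raji cells detected by flow cytometry using an Alexa488-labelled anti-human IgG secondary antibody, primary incubation 1 h at 4 °C.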
Method: CD40 positive cells (Raji cells) were detatched from the culture bottle using Trypsin and were counted using a Casy cell counter. After pelleting at 4° C., the cells were resuspended in FACS Buffer (2.5% FCS in PBS), adjusted to 2.0E+06 cells/mL, and dispensed to 96-well PP V-bottom-plates (25 μL/well=5.0E+04Zellen/well).
The CD40 specific antibodies were adjusted to 20 μg/mL in FACS buffer, resulting in a final concentration of 10 μg/mL. 20 μl were added to 25 μl cell suspension and incubated for 1 h at 4° C. The cells were then washed twice in FACS buffer. After washing, the cells were resuspended in 50 μL FACS-buffer containing secondary antibody (<huIgG>-Alexa488, c=10 μg/mL) and incubated 1 h bei 4° C. The cells were then washed twice in FACS buffer and resuspended in 70 μl/well FACS buffer for measurement using a FACS Canto (BD, Pharmingen).

Assay [2] addresses T2, human CD40 extracellular domain with C-terminal His-AviTag (human, UniProt P25942 21-193).
T2 construct: not shown: C-terminal His-AviTag
As to the kind of experiment: SPR, antibody captured, CD40 ECD analyte.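 Note: biacore SPR at 25 °C in PBS-T pH 7.4, CD40 ECD analyte from 300 nM in 1:3 series, 300 s association, up to 1200 s dissociation, double-referenced, Langmuir 1:1 fit.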

B1: P1AE0400, humanized anti-CD40 antibody VH2a/VL2a, huIgG1_LALA_PG (antibody, V domains shown)
VH: EVQLLESGGGLVQPGGSLRLSCAASGYSFTGYYIHWVRQAPGKGLEWVGRVIPNAGGTSYNQKFKGRFTISVDNSKNTAYLQMNSLRAEDTAVYYCAREGIYWWGQGTTVTVSS
VL: DIQMTQSPSSLSASVGDRVTITCRSSQSLVHSNGNTFLHWYQQKPGKAPKLLIYTVSNRFSGVPSRFSGSGSGTDFTLTISSLQPEDFATYFCSQTTHVPWTFGGGTKVEIKR
notes: also called VL2a/VH2a
Usually EC50 stands for the midpoint of the concentration-response curve. Usually Kd stands for a measure of binding affinity in units of concentration. A low value points to a tighter complex. As usually defined, the koff is the first-order rate constant of dissociation. As usually defined, the kon is the rate constant with which the complex forms. Take B1: it took 0.12 mg/L to reach a half-maximal effect in assay [1] (EC50). Besides, in assay [2], the Kd was 4.2 nM, the koff amounted to 0.00699 s⁻¹ and the kon was determined as 1.68e+06 M⁻¹ s⁻¹.

B2: P1AE0404, humanized anti-CD40 antibody VH2a/VL2b, huIgG1_LALA_PG (antibody, V domains shown)
VH: EVQLLESGGGLVQPGGSLRLSCAASGYSFTGYYIHWVRQAPGKGLEWVGRVIPNAGGTSYNQKFKGRFTISVDNSKNTAYLQMNSLRAEDTAVYYCAREGIYWWGQGTTVTVSS
VL: DIQMTQSPSSLSASVGDRVTITCRSSQSLVHSNGNTFLHWYQQKPGQSPKLLIYTVSNRFSGVPSRFSGSGSGTDFTLTISSLQPEDFATYFCSQTTHVPWTFGGGTKVEIK
notes: huIgG1 with effector silent Fc (P329G, L234A, L235A); also called VL2b/VH2a
As to B2, in assay [1], it took 0.11 mg/L to reach a half-maximal effect (EC50). Moreover, in assay [2], binding was characterised by a dissociation constant (Kd) of 4.2 nM, the koff came out at 0.00693 s⁻¹ and the kon is 1.63e+06 M⁻¹ s⁻¹.

B3: P1AE0403, humanized anti-CD40 antibody VH2d/VL2a, huIgG1_LALA_PG (antibody, V domains shown)
VH: EVQLLESGGGLVQPGGSLRLSCAASGYSFTGYYIHWVRQAPGKGLEWVGRVIPNAGGTSYGDSVKGRFTISVDNSKNTAYLQMNSLRAEDTAVYYCAREGIYWWGQGTTVTVSS
VL: DIQMTQSPSSLSASVGDRVTITCRSSQSLVHSNGNTFLHWYQQKPGKAPKLLIYTVSNRFSGVPSRFSGSGSGTDFTLTISSLQPEDFATYFCSQTTHVPWTFGGGTKVEIKR
notes: also called VL2a/VH2d
On to B3, for which the EC50 in assay [1] was 0.12 mg/L. Moreover, in assay [2], the Kd was 29 nM, the koff was found to be 0.0407 s⁻¹ and the kon is 1.4e+06 M⁻¹ s⁻¹.

B4: P1AE0407, humanized anti-CD40 antibody VH2d/VL2b, huIgG1_LALA_PG (antibody, V domains shown)
VH: EVQLLESGGGLVQPGGSLRLSCAASGYSFTGYYIHWVRQAPGKGLEWVGRVIPNAGGTSYGDSVKGRFTISVDNSKNTAYLQMNSLRAEDTAVYYCAREGIYWWGQGTTVTVSS
VL: DIQMTQSPSSLSASVGDRVTITCRSSQSLVHSNGNTFLHWYQQKPGQSPKLLIYTVSNRFSGVPSRFSGSGSGTDFTLTISSLQPEDFATYFCSQTTHVPWTFGGGTKVEIK
notes: huIgG1 with effector silent Fc (P329G, L234A, L235A); also called VL2b/VH2d
Consider B4, for which, in assay [1], the EC50 turned out to be 0.12 mg/L. Also, in assay [2], the Kd stood at 30 nM, the koff stood at 0.0355 s⁻¹ and the kon is 1.19e+06 M⁻¹ s⁻¹.

B5: P1AE0406, humanized anti-CD40 antibody VH2c/VL2b, huIgG1_LALA_PG (antibody, V domains shown)
VH: EVQLLESGGGLVQPGGSLRLSCAASGYSFTGYYIHWVRQAPGKGLEWVGRVIPNAGGTSYNQKFKGRFTISVDNSKNTAYLQMNSLRAEDTAVYYCAREGIYWWGHGTTVTVSS
VL: DIQMTQSPSSLSASVGDRVTITCRSSQSLVHSNGNTFLHWYQQKPGQSPKLLIYTVSNRFSGVPSRFSGSGSGTDFTLTISSLQPEDFATYFCSQTTHVPWTFGGGTKVEIK
notes: huIgG1 with effector silent Fc (P329G, L234A, L235A); also called VL2b/VH2c
In turn, B5 came in with an EC50 in assay [1] of 0.09 mg/L. In addition, in assay [2], the affinity, expressed as Kd, was 4.2 nM; the koff worked out at 0.00709 s⁻¹; the kon worked out at 1.67e+06 M⁻¹ s⁻¹.

B6: P1AE0401, humanized anti-CD40 antibody VH2b/VL2a, huIgG1_LALA_PG (antibody, V domains shown)
VH: EVQLLESGGGLVQPGGSLRLSCAASGYSFTGYYIHWVRQAPGKSLEWVGRVIPNAGGTSYNQKFKGRFTISVDNSKNTAYLQMNSLRAEDTAVYYCAREGIYWWGQGTTVTVSS
VL: DIQMTQSPSSLSASVGDRVTITCRSSQSLVHSNGNTFLHWYQQKPGKAPKLLIYTVSNRFSGVPSRFSGSGSGTDFTLTISSLQPEDFATYFCSQTTHVPWTFGGGTKVEIK
notes: huIgG1 with effector silent Fc (P329G, L234A, L235A); also called VL2a/VH2b
Molecule B6 gave an EC50 in assay [1] of 0.13 mg/L. For the same molecule, in assay [2], binding was put at a Kd of 4.6 nM, the koff worked out at 0.00787 s⁻¹ and the kon was 1.69e+06 M⁻¹ s⁻¹.

B7: P1AE0402, humanized anti-CD40 antibody VH2c/VL2a, huIgG1_LALA_PG (antibody, V domains shown)
VH: EVQLLESGGGLVQPGGSLRLSCAASGYSFTGYYIHWVRQAPGKGLEWVGRVIPNAGGTSYNQKFKGRFTISVDNSKNTAYLQMNSLRAEDTAVYYCAREGIYWWGHGTTVTVSS
VL: DIQMTQSPSSLSASVGDRVTITCRSSQSLVHSNGNTFLHWYQQKPGKAPKLLIYTVSNRFSGVPSRFSGSGSGTDFTLTISSLQPEDFATYFCSQTTHVPWTFGGGTKVEIK
notes: huIgG1 with effector silent Fc (P329G, L234A, L235A); also called VL2a/VH2c
In turn, B7 came in with an EC50 in assay [1] of 0.13 mg/L. Moreover, in assay [2], the Kd stood at 4.2 nM, the koff was 0.00709 s⁻¹ and the kon amounted to 1.67e+06 M⁻¹ s⁻¹.

B8: P1AE0405, humanized anti-CD40 antibody VH2b/VL2b, huIgG1_LALA_PG (antibody, V domains shown)
VH: EVQLLESGGGLVQPGGSLRLSCAASGYSFTGYYIHWVRQAPGKSLEWVGRVIPNAGGTSYNQKFKGRFTISVDNSKNTAYLQMNSLRAEDTAVYYCAREGIYWWGQGTTVTVSS
VL: DIQMTQSPSSLSASVGDRVTITCRSSQSLVHSNGNTFLHWYQQKPGQSPKLLIYTVSNRFSGVPSRFSGSGSGTDFTLTISSLQPEDFATYFCSQTTHVPWTFGGGTKVEIK
notes: huIgG1 with effector silent Fc (P329G, L234A, L235A); also called VL2b/VH2b
B8: the 50% effective concentration (EC50) in assay [1] worked out at 0.09 mg/L. In assay [2], this molecule displayed a Kd of 5.1 nM, a koff of 0.00814 s⁻¹ and an on-rate constant (kon) of 1.61e+06 M⁻¹ s⁻¹.

B9: P1AE0817, humanized anti-CD40 antibody VH1a/VL1a, huIgG1_LALA_PG (antibody, V domains shown)
VH: QVQLVQSGAEVKKPGASVKVSCKASGYSFTGYYIHWVRQAPGQSLEWMGRVIPNAGGTSYNQKFKGRVTLTVDKSISTAYMELSRLRSDDTAVYYCAREGIYWWGQGTTVTVSS
VL: DIVMTQTPLSLSVTPGQPASISCRSSQSLVHSNGNTFLHWYLQKPGQSPQLLIYTVSNRFSGVPDRFSGSGSGTDFTLKISRVEAEDVGVYFCSQTTHVPWTFGGGTKVEIKR
Take B9: in assay [1], the EC50 is 0.09 mg/L. In addition, in assay [2], binding was characterised by a dissociation constant (Kd) of 2.5 nM, the koff is 0.00593 s⁻¹ and the association rate constant (kon) was found to be 2.4e+06 M⁻¹ s⁻¹.

B10: P1AE0993, humanized anti-CD40 antibody VH1a/VL1c, huIgG1_LALA_PG (antibody, V domains shown)
VH: QVQLVQSGAEVKKPGASVKVSCKASGYSFTGYYIHWVRQAPGQSLEWMGRVIPNAGGTSYNQKFKGRVTLTVDKSISTAYMELSRLRSDDTAVYYCAREGIYWWGQGTTVTVSS
VL: DVVVTQTPLSLSVTPGQPASISCRSSQSLVHSNGNTFLHWYLQKPGQSPQLLIYTVSNRFSGVPDRFSGSGSGTDFTLKISRVEAEDVGVYFCSQTTHVPWTFGGGTKVEIK
notes: huIgG1 with effector silent Fc (P329G, L234A, L235A)
In the case of B10, in assay [1], the EC50 came out at 0.13 mg/L. In addition, in assay [2], binding was characterised by a dissociation constant (Kd) of 3.4 nM, the koff amounted to 0.00898 s⁻¹ and the kon was 2.68e+06 M⁻¹ s⁻¹.

B11: P1AE0818, humanized anti-CD40 antibody VH1c/VL1c, huIgG1_LALA_PG (antibody, V domains shown)
VH: QVQLVQSGAEVKKPGASVKVSCKASGYSFTGYYIHWVRQAPGQSLEWMGRVIPNAGGTSYNQKFKGRVTLTVDKSISTAYMELSRLRSDDTAVYYCAREGIYWWGHGTTVTVSS
VL: DVVVTQTPLSLSVTPGQPASISCRSSQSLVHSNGNTFLHWYLQKPGQSPQLLIYTVSNRFSGVPDRFSGSGSGTDFTLKISRVEAEDVGVYFCSQTTHVPWTFGGGTKVEIK
notes: as for B10
In assay [1], B11 yielded an EC50 of 0.14 mg/L. In assay [2], this molecule had a Kd of 3.2 nM, a koff of 0.00847 s⁻¹ and a kon of 2.63e+06 M⁻¹ s⁻¹.

B12: P1AE0819, humanized anti-CD40 antibody VH1d/VL1d, huIgG1_LALA_PG (antibody, V domains shown)
VH: QVQLVQSGAEVKKPGASVKVSCKASGYSFTGYYIHWVRQAPGQSLEWMGRVIPNAGGTSYNQKFKGRVTLSVDKSISTAYMELSRLRSDDTAVYYCAREGIYWWGQGTTVTVSS
VL: DVVVTQTPLSLSVTPGQPASISCRSSQSLVHSNGNTFLHWYLQKPGQSPQLLIYTVSNRFSGVPDRFSGSGSGTDFTLKISRVEAEDVGVYFCSQTTHVPWTFGGGTKLEIK
notes: as for B10
Molecule B12 came in with an EC50 in assay [1] of 0.11 mg/L. For the same molecule, in assay [2], the Kd was determined as 3.4 nM, the koff is 0.00877 s⁻¹ and the kon came out at 2.59e+06 M⁻¹ s⁻¹.
